This experiment concerns mutant form of α-Gal A expressed in HEK-293 cells. Put plainly: HEK assay (GLP HEK / Migalastat Amenability Assay): α-Gal A activity in lysates of transiently transfected HEK-293 cells incubated with or without 10 μM migalastat. The format is cell-based, human. The note with it: for Absolute increase (% WT) / Relative increase: 10 μM migalastat versus baseline; for Baseline α-Gal A activity (% WT): absence of migalastat; for Baseline α-Gal A activity (% WT) / 10 μM migalastat α-Gal A activity (% WT): percentage of baseline wild-type α-Gal A activity; for Baseline α-Gal A activity (% WT) / Baseline α-Gal A activity / 10 μM migalastat α-Gal A activity / 10 μM migalastat α-Gal A activity (% WT): mean ± SEM; for Baseline α-Gal A activity / 10 μM migalastat α-Gal A activity: lysates of HEK-293 cells transiently transfected with the mutant form; for Baseline α-Gal A activity: incubated 5 days in absence of migalastat; for 10 μM migalastat α-Gal A activity: incubated 5 days with 10 μM migalastat; for 10 μM migalastat α-Gal A activity (% WT): with 10 μM migalastat, 5 days. A digest of the protocol:
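Activity reported as 4-MU released (nmol/mg/hr), mean±SEM, from lysates of transiently transfected HEK-293 cells expressing mutant α-Gal A, cultured with or without 10 μM migalastat.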

Substitutions are numbered along the chain they refer to. Names and notes keep the numbering of the source.

B1: A318T (protein)
chain: MQLRNPELHLGCALALRFLALVSWDIPGARALDNGLARTPTMGWLHWERFMCNLDCQEEPDSCISEKLFMEMAELMVSEGWKDAGYEYLCIDDCWMAPQRDSEGRLQADPQRFPHGIRQLANYVHSKGLKLGIYADVGNKTCAGFPGSFGYYDIDAQTFADWGVDLLKFDGCYCDSLENLADGYKHMSLALNRTGRSIVYSCEWPLYMWPFQKPNYTEIRQYCNHWRNFADIDDSWKSIKSILDWTSFNQERIVDVAGPGGWNDPDMLVIGNFGLSWNQQVTQMALWAIMAAPLFMSNDLRHISPQAKALLQDKDVITINQDPLGKQGYQLRQGDNFEVWERPLSGLAWAVAMINRQEIGGPRSYTIAVASLGKGVACNPACFITQLLPVKRKLGFYEWTSRLRSHINPTGTVLLQLENTMQMSLKDLL
Take B1: the “Absolute increase (% WT)” value turned out to be 17.7 % WT, the Relative increase is on record as 1.3, the “Baseline α-Gal A activity (% WT)” value was found to be 45.2 ± 2.8 % WT and the “Baseline α-Gal A activity” value came out at 16954 ± 1483 nmol/mg/h. The “10 μM migalastat α-Gal A activity” value came to 22296 ± 1232 nmol/mg/h and the “10 μM migalastat α-Gal A activity (% WT)” value is recorded as 62.9 ± 4.6 % WT.

B2: K326T (protein)
chain: B1 chain with T318A, K326T
In the case of B2, the “Absolute increase (% WT)” value is reported as 26.4 % WT, the Relative increase turned out to be 1.4, the “Baseline α-Gal A activity (% WT)” value was 69.6 ± 2.4 % WT and the “Baseline α-Gal A activity” value stood at 19442 ± 739 nmol/mg/h. The “10 μM migalastat α-Gal A activity” value was 26653 ± 877 nmol/mg/h and the “10 μM migalastat α-Gal A activity (% WT)” value was 96 ± 3.7 % WT.

B3: K326M (protein)
chain: B1 chain with T318A, K326M
Regarding B3, the “Absolute increase (% WT)” value is listed as 63.2 % WT, the Relative increase is reported as 3.7, the “Baseline α-Gal A activity (% WT)” value is 24.4 ± 1.6 % WT and the “Baseline α-Gal A activity” value worked out at 8482 ± 500 nmol/mg/h. The “10 μM migalastat α-Gal A activity” value was found to be 31204 ± 1979 nmol/mg/h and the “10 μM migalastat α-Gal A activity (% WT)” value turned out to be 87.6 ± 3.5 % WT.

B4: L324V (protein)
chain: B1 chain with T318A, L324V
In the case of B4, the “Absolute increase (% WT)” value is reported as 13.0 % WT, the Relative increase was 1.2, the “Baseline α-Gal A activity (% WT)” value amounted to 57.2 ± 2.1 % WT and the “Baseline α-Gal A activity” value is 17027 ± 1167 nmol/mg/h. In addition, the “10 μM migalastat α-Gal A activity” value is 20866 ± 1331 nmol/mg/h and the “10 μM migalastat α-Gal A activity (% WT)” value was determined as 70.2 ± 2 % WT.

B5: G325V (protein)
chain: B1 chain with T318A, G325V
Take B5: the “Absolute increase (% WT)” value amounted to 17.1 % WT, the Relative increase came to 9.3, the “Baseline α-Gal A activity (% WT)” value came to 2.2 ± 0.2 % WT and the “Baseline α-Gal A activity” value was found to be 572 ± 30 nmol/mg/h. The “10 μM migalastat α-Gal A activity” value is 5333 ± 294 nmol/mg/h and the “10 μM migalastat α-Gal A activity (% WT)” value was 19.3 ± 1.1 % WT.

B6: I319M (protein)
chain: B1 chain with T318A, I319M
For B6, the “Absolute increase (% WT)” value is 9.4 % WT, the Relative increase is reported as 1.2, the “Baseline α-Gal A activity (% WT)” value is recorded as 47.4 ± 2.2 % WT and the “Baseline α-Gal A activity” value was 12191 ± 433 nmol/mg/h. Further, the “10 μM migalastat α-Gal A activity” value was 14802 ± 727 nmol/mg/h and the “10 μM migalastat α-Gal A activity (% WT)” value turned out to be 56.8 ± 2.3 % WT.

B7: N320S (protein)
chain: B1 chain with T318A, N320S
Regarding B7, the “Absolute increase (% WT)” value is recorded as 23.9 % WT, the Relative increase is 1.3, the “Baseline α-Gal A activity (% WT)” value is listed as 82.9 ± 4.5 % WT and the “Baseline α-Gal A activity” value is 21562 ± 1285 nmol/mg/h. For the same molecule, the “10 μM migalastat α-Gal A activity” value stood at 28097 ± 1522 nmol/mg/h and the “10 μM migalastat α-Gal A activity (% WT)” value is 106.7 ± 3.9 % WT.

B8: D322A (protein)
chain: B1 chain with T318A, D322A
For the molecule B8, the “Absolute increase (% WT)” value was determined as 15.3 % WT, the Relative increase is reported as 3.2, the “Baseline α-Gal A activity (% WT)” value is given as 6.8 ± 0.4 % WT and the “Baseline α-Gal A activity” value is 1908 ± 139 nmol/mg/h. Besides, the “10 μM migalastat α-Gal A activity” value is 6170 ± 310 nmol/mg/h and the “10 μM migalastat α-Gal A activity (% WT)” value is listed as 22.2 ± 1 % WT.

B9: G325C (protein)
chain: B1 chain with T318A, G325C
For the molecule B9, the “Absolute increase (% WT)” value turned out to be 34.5 % WT, the Relative increase is given as 1.7, the “Baseline α-Gal A activity (% WT)” value is recorded as 51.4 ± 1.7 % WT and the “Baseline α-Gal A activity” value was 14482 ± 695 nmol/mg/h. Besides, the “10 μM migalastat α-Gal A activity” value worked out at 23873 ± 1021 nmol/mg/h and the “10 μM migalastat α-Gal A activity (% WT)” value was 85.9 ± 4 % WT.

B10: K326R (protein)
chain: B1 chain with T318A, K326R
On to B10, for which the “Absolute increase (% WT)” value is 48.0 % WT, the Relative increase amounted to 1.8, the “Baseline α-Gal A activity (% WT)” value came to 61.7 ± 3.4 % WT and the “Baseline α-Gal A activity” value worked out at 17744 ± 923 nmol/mg/h. Further, the “10 μM migalastat α-Gal A activity” value was 31690 ± 1112 nmol/mg/h and the “10 μM migalastat α-Gal A activity (% WT)” value worked out at 109.7 ± 2.9 % WT.

B11: L324W (protein)
chain: B1 chain with T318A, L324W
Take B11: the “Absolute increase (% WT)” value was 19.8 % WT, the Relative increase is given as 1.3, the “Baseline α-Gal A activity (% WT)” value was determined as 73.5 ± 1.8 % WT and the “Baseline α-Gal A activity” value came to 20623 ± 721 nmol/mg/h. Besides, the “10 μM migalastat α-Gal A activity” value was found to be 25772 ± 1045 nmol/mg/h and the “10 μM migalastat α-Gal A activity (% WT)” value worked out at 93.3 ± 4.5 % WT.

B12: A318V (protein)
chain: B1 chain with T318V
As to B12, the “Absolute increase (% WT)” value worked out at 16.5 % WT, the Relative increase was found to be 1.4, the “Baseline α-Gal A activity (% WT)” value worked out at 37.9 ± 2.1 % WT and the “Baseline α-Gal A activity” value was 14603 ± 1377 nmol/mg/h. The “10 μM migalastat α-Gal A activity” value turned out to be 19658 ± 1108 nmol/mg/h and the “10 μM migalastat α-Gal A activity (% WT)” value worked out at 54.4 ± 3.5 % WT.

B13: Q321K (protein)
chain: B1 chain with T318A, Q321K
For B13, the “Absolute increase (% WT)” value turned out to be 32.0 % WT, the Relative increase is reported as 2.1, the “Baseline α-Gal A activity (% WT)” value is 29.2 ± 2 % WT and the “Baseline α-Gal A activity” value was found to be 7590 ± 520 nmol/mg/h. Further, the “10 μM migalastat α-Gal A activity” value was found to be 16046 ± 870 nmol/mg/h and the “10 μM migalastat α-Gal A activity (% WT)” value is 61.2 ± 2.4 % WT.

B14: K326E (protein)
chain: B1 chain with T318A, K326E
Regarding B14, the “Absolute increase (% WT)” value was determined as 25.3 % WT, the Relative increase is given as 1.4, the “Baseline α-Gal A activity (% WT)” value is reported as 55.6 ± 2.6 % WT and the “Baseline α-Gal A activity” value was 15541 ± 832 nmol/mg/h. The “10 μM migalastat α-Gal A activity” value is 22340 ± 828 nmol/mg/h and the “10 μM migalastat α-Gal A activity (% WT)” value was found to be 80.9 ± 3.9 % WT.

B15: D322V (protein)
chain: B1 chain with T318A, D322V
For the molecule B15, the “Absolute increase (% WT)” value was 11.7 % WT, the Relative increase is listed as 5.6, the “Baseline α-Gal A activity (% WT)” value is on record as 2.6 ± 0.2 % WT and the “Baseline α-Gal A activity” value worked out at 714 ± 53 nmol/mg/h. Also, the “10 μM migalastat α-Gal A activity” value stood at 3989 ± 217 nmol/mg/h and the “10 μM migalastat α-Gal A activity (% WT)” value is listed as 14.3 ± 0.6 % WT.

B16: K326Q (protein)
chain: B1 chain with T318A, K326Q
As for B16, the “Absolute increase (% WT)” value was found to be 26.1 % WT, the Relative increase is listed as 1.3, the “Baseline α-Gal A activity (% WT)” value stood at 78 ± 3 % WT and the “Baseline α-Gal A activity” value worked out at 22075 ± 1209 nmol/mg/h. The “10 μM migalastat α-Gal A activity” value stood at 29168 ± 1869 nmol/mg/h and the “10 μM migalastat α-Gal A activity (% WT)” value is listed as 104.1 ± 5.7 % WT.

B17: G325A (protein)
chain: B1 chain with T318A, G325A
In the case of B17, the “Absolute increase (% WT)” value turned out to be 34.4 % WT, the Relative increase was found to be 1.5, the “Baseline α-Gal A activity (% WT)” value was 64.9 ± 3.8 % WT and the “Baseline α-Gal A activity” value is 18183 ± 1254 nmol/mg/h. Besides, the “10 μM migalastat α-Gal A activity” value came to 27523 ± 1456 nmol/mg/h and the “10 μM migalastat α-Gal A activity (% WT)” value came out at 99.2 ± 5.4 % WT.

B18: N320T (protein)
chain: B1 chain with T318A, N320T
Turning to B18, the “Absolute increase (% WT)” value amounted to 21.8 % WT, the Relative increase was 2.0, the “Baseline α-Gal A activity (% WT)” value was 21.6 ± 1.5 % WT and the “Baseline α-Gal A activity” value was 5597 ± 442 nmol/mg/h. Moreover, the “10 μM migalastat α-Gal A activity” value was 11276 ± 658 nmol/mg/h and the “10 μM migalastat α-Gal A activity (% WT)” value is recorded as 43.3 ± 1.9 % WT.

(Values after patent US11833164B2, “Methods of treating Fabry disease in patients having a mutation in the GLA gene” (Amicus Therapeutics, Inc., priority 2019, dated 2023).)
